{"source": "patent US7387779B2", "about": "“Anti-angiogenic proteins and fragments and methods of use thereof” (Beth Israel Deaconess Medical Center, priority 1998, dated 2008)", "molecules": {"B1": {"name": "endostatin: tumor associated angiogenesis inhibitor used as comparator (protein, UniProt P39060 1572-1754, looked up)", "Endostatin": "HSHRDFQPVLHLVALNSPLSGGMRGIRGADFQCFQQARAVGLAGTFRAFLSSRLQDLYSIVRRADRAAVPIVNLKDELLFPSWEALFSGSEGPLKPGARIFSFDGKDVLRHPTWPQKSVWHGSDPNGRRLTESYCETWRTEAPSATGQASSLLGGRLLGQSAASCHHAYIVLCIENSFMTASK", "modifications": "Endostatin"}, "B2": {"name": "Tumstatin: NC1 domain of the α3 chain of type IV collagen, residues 1-244 (SEQ ID NO:10) (protein, listed as Homo sapiens)", "chain": "GLKGKRGDSGSPATWTTRGFVFTRHSQTTAIPSCPEGTVPLYSGFSFLFVQGNQRAHGQDLGTLGSCLQRFTTMPFLFCNVNDVCNFASRNDYSYWLSTPALMPMNMAPITGRALEPYISRCTVCEGPAIAIAVHSQTTDIPPCPHGWISLWKGFSFIMFTSAGSEGTGQALASPGSCLEEFRASPFLECHGRGTCNYYSNSYSFWLASLNPERMFRKPIPSTVKAGELEKIISRCQVCMKKRH"}, "B3": {"name": "Tum-1: residues 54 to 244 of Tumstatin, lacking the N-terminal 53 amino acids (SEQ ID NO:22) (protein)", "chain": "QRAHGQDLGTLGSCLQRFTTMPFLFCNVNDVCNFASRNDYSYWLSTPALMPMNMAPITGRALEPYISRCTVCEGPAIAIAVHSQTTDIPPCPHGWISLWKGFSFIMFTSAGSEGTGQALASPGSCLEEFRASPFLECHGRGTCNYYSNSYSFWLASLNPERMFRKPIPSTVKAGELEKIISRCQVCMKKRH", "modifications": "Tum-1 (Tumstatin N-53) (amino acids 54-244 of SEQ ID NO10)"}, "B4": {"name": "Tumstatin-44-131: residues 44 to 131 of full-length Tumstatin (SEQ ID NO:33) (protein)", "chain": "FSFLFVQGNQRAHGQDLGTLGSCLQRFTTMPFLFCNVNDVCNFASRNDYSYWLSTPALMPMNMAPITGRALEPYISRCTVCEGPAIAI", "modifications": "Tumstatin-45-132 (amino acids 45-132 of SEQ ID NO10)"}, "B5": {"name": "Tum-2: residues 1 to 132 of Tumstatin (SEQ ID NO:23) (protein)", "chain": "GLKGKRGDSGSPATWTTRGFVFTRHSQTTAIPSCPEGTVPLYSGFSFLFVQGNQRAHGQDLGTLGSCLQRFTTMPFLFCNVNDVCNFASRNDYSYWLSTPALMPMNMAPITGRALEPYISRCTVCEGPAIAI", "modifications": "Tum-2 (amino acids 1-132 of SEQ ID NO10)"}}, "key": {"[1]": {"target": "T1, human αvβ3 protein (Homo sapiens, UniProt P05106+P06756)", "T1 construct": "purchased CHEMICON Int'l, Temecula, Calif., USA", "T1 sequence (P06756 31-889 limits assumed)": "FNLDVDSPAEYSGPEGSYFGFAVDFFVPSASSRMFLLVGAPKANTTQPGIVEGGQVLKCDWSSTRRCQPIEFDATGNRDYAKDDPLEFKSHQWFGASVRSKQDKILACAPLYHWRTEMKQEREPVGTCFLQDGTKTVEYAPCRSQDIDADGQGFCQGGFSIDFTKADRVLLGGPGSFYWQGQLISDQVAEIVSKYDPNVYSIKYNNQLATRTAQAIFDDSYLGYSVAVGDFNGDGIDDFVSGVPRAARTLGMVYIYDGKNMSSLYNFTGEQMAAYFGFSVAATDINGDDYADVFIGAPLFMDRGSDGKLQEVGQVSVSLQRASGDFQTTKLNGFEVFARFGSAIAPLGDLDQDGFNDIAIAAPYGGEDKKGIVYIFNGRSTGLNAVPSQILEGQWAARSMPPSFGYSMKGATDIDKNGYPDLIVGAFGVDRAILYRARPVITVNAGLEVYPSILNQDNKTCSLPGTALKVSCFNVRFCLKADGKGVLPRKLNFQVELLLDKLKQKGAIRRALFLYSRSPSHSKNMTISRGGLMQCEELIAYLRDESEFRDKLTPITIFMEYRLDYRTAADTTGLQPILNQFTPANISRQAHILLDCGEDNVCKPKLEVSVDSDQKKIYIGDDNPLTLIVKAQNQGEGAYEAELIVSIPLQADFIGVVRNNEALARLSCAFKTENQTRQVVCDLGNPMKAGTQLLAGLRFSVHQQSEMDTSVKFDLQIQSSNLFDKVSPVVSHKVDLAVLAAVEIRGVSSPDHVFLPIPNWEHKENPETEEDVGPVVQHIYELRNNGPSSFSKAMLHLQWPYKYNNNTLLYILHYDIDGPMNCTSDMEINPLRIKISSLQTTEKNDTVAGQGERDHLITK", "T1 sequence (P06756 891-1048 partner limits assumed)": "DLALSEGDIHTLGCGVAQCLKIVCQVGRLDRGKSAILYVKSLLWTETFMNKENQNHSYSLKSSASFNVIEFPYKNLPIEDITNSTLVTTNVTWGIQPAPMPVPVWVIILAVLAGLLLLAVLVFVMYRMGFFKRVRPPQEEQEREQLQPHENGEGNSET", "T1 sequence (P05106 27-788)": "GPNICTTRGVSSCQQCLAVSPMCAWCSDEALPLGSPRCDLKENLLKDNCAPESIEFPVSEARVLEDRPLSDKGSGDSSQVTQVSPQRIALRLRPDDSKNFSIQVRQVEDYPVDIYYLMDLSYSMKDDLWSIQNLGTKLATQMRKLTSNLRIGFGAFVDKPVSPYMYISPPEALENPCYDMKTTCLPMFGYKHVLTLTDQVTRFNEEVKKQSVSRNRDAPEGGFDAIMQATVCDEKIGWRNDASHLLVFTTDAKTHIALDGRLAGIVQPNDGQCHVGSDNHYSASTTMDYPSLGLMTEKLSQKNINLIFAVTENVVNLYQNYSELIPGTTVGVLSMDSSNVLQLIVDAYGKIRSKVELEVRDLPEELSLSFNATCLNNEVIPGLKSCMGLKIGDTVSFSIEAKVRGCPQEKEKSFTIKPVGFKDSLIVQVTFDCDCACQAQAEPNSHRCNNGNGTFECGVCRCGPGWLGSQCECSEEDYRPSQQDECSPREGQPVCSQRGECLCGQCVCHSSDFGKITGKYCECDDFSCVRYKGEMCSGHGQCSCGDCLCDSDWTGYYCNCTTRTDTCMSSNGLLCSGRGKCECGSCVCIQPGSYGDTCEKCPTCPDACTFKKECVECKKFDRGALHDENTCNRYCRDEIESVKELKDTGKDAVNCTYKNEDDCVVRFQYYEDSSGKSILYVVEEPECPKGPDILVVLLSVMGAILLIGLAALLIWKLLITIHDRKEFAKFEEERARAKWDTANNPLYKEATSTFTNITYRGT", "assay": "Competition proliferation assay with soluble αvβ3 protein, C-PAE cells", "assay_type": "cell-based, bovine", "experimental": "C-PAE cells were plated into 96-well plates as described above for the endothelial cell proliferation assay. Tumstatin at a final concentration of 0.1 μg/ml was incubated with varying concentrations (0, 0.008, 0.08, 0.8, 1.6 and 2.4 μg/ml) of human αvβ3 protein (CHEMICON Int'l, Temecula, Calif., USA) for 30 minutes at room temperature. This mixture was then added into the wells, and incubated for 48 hours. The proliferation assay was then performed using the methylene blue staining method, as described above for the endothelial cell proliferation assay.\nThe integrin αvβ3 was then investigated for its ability to reverse the anti-proliferative effects of Tumstatin and Tum-2. Tumstatin and Tum-2 were incubated with αvβ3 protein for 30 minutes, and added to C-PAE cells which were plated in 96-well plates and incubated overnight with growth media. After incubation for 48 hours, the cell number was determined by methylene blue staining.\nIntegrin αvβ3 was investigate for its ability to reverse the anti-proliferative affects of peptide T3. T3 peptide was incubated with 0, 0.001, 0.01, 0.1, 0.5, or 1.0 μg/ml αvβ3 integrin protein (CHEMICON Int'l, Temecula, Calif., USA) for 30 minutes at room temperature, and was then added, at 20 μg/ml final concentration, to C-PAE cells that had been grown in 96-well plates in growth media. After 48 hours of additional incubation, cell number was determined by the methylene blue assay. The results are shown in FIG. 43C, which is a histogram showing the growth of C-PAE cells (y-axis) when treated with T3 peptide that had been pre-incubated with varying concentrations (x-axis) of αvβ3 integrin.\nSoluble αvβ3 integrin protein reversed the anti-proliferative effects of Tumstatin-44-131. This was shown by a competition proliferation assay as described above in Example 26. […] E. Coli-expressed Tumstatin-44-131 was then incubated with αvβ3 integrin protein for 30 minutes, and then added to C-PAE cells with 20% FCS. After 48 hours, cell proliferation was determined by methylene blue staining. The anti-proliferative affect of Tumstatin-44-131 was reversed dose-dependently with increasing concentrations of αvβ3 soluble protein."}, "[2]": {"system": "PC-3 tumors", "assay": "PC-3 xenograft in athymic nude NCRNU mice (Example 46)", "assay_type": "in vivo", "experimental": "Tumstatin-44-131 was also tested for its ability to suppress tumor growth. Male athymic nude NCRNU mice, of 5-6 weeks of age and about 25 g, were implanted with […] approximately 2×10^6 PC-3 (prostate cancer carcinoma) cells into the dorsal subcutis. […] The tumors were allowed to grow to about 50 mm^3, and animals were then pair-matched into groups of 6 mice. Initial doses of protein or vehicle (PBS, control) were given on the day of pair-matching (Day 1). Tumstatin-44-131, Tum-5-125-C-A, or human endostatin in sterile PBS was intraperitoneally injected daily b.i.d. at doses ranging from 1 to 20 mg/kg for 20 days. Control animals received injection of PBS vehicle. In one treatment, continuous subcutaneous delivery of Tumstatin-44-131 was done using surgically implanted Alzet mini-pumps. The mice were weighed twice weekly, and tumor measurements were taken, starting on Day 1. Estimated mean tumor volumes were calculated, and at Day 21, the mice were weighed, sacrificed, and their tumors excised and examined by light microscopy and CD31 immunostaining. The mean treated tumor weight was divided by the mean control tumor weight was subtracted from one, and expressed as a percentage to give the tumor growth inhibition for each group."}, "[3]": {"system": "HUVECs", "assay": "Endothelial tube formation on Matrigel", "assay_type": "cell-based, human", "experimental": "Tumstatin-44-131 was also found to inhibit endothelial tube formation, as shown by Matrigel assay. The Matrigel assay was performed as described in the examples above. Briefly, HUVECS were allowed to form tubes on Matrigel-coated plates incubated with or without 5 μg/ml E. Coli-expressed Tumstatin-44-131. BSA-treated cells and yeast-expressed human endostatin (5 and 20 μg/ml) was used as controls. […] The average percentage tube branch formation after treatment was 22.7±3.1 for the BSA treatment, 2.1±2.0 for Tumstatin-44-131 treatment, while the 5 μg/ml and 20 μg/ml endostatin produced an average of 19.4±3.0 and 7.5±6.0, respectively."}, "[4]": {"system": "C-PAE cells", "assay": "BrdU incorporation proliferation assay", "assay_type": "cell-based, bovine", "settings": "0-2.0 μM", "experimental": "The anti-proliferative affect of Tumstatin-44-131 on C-PAE cells was examined via BrdU incorporation assay. This assay uses bromodeoxyuridine (BrdU) instead of ^3H-thymidine as a thymidine analog. BrdU is incorporated into newly synthesized DNA strands in actively proliferating cells. The BrdU incorporated into the cells can then be detected immunochemically. The assay was conducted using the BrdU proliferation assay kit (CalbioChem, San Diego, Calif., USA) according to the manufacturer's instructions, with some modifications. C-PAE cells were seeded onto 96-well plates in DMEM containing 10% FCS. The next day, the medium was replaced with DMEM containing 2% FCS with or without E. Coli-expressed Tumstatin-44-131, or full-length Tumstatin expressed in 293 cells. The plates were then incubated for 46 hours, and the cells were then pulsed for two hours with 10 nM BrdU. The cells and DNA were then fixed to the wells, reacted with anti-BrdU primary and secondary antibodies, and then developed with a calorimetric reaction supplied with the kit. The plates were then read at OD450 on a plate reader (Molecular Dynamics, Sunnyvale, Calif., USA)."}, "[5]": {"system": "C-PAE cells", "assay": "Competitive proliferation assay with anti-Tum-4 antibody", "assay_type": "cell-based, bovine", "settings": "1.5 μg/ml", "experimental": "To determine if Turn-1 's inhibition of endothelial cell proliferation could be nullified by anti-Tum-4 antibody, a competitive proliferation assay was performed as described in Example 26, above. Tum-1 was preincubated with anti-Tum-4 antibody for the purpose of at least partially blocking the αvβ3 integrin binding site. It was then used in endothelial cell proliferation assays.\nThe results are shown in FIGS. 38A and 38B, which are histograms showing proliferation of C-PAE cells (y-axis) treated with 1.5 μg/ml Tum-1 (FIG. 38A) or Tum-2 (FIG. 38B) that had been preincubated with anti-Tum-4 antibody (1:100, 1:200, 1:500 dilution) (x-axis). Each column represents the mean ±the standard error of the mean for triplicate wells. The experiments were repeated three times. Asterisks indicate P<0.05 by one-tailed Student's t-test."}}, "data": [{"molecule": "LQRFTTMPFLFCNVNDVCNF [T3]", "values": [{"measurement": "anti-proliferative effect after pre-incubation with αvβ3 integrin protein", "setting": "[1]; peptide 20 μg/ml", "value": "significantly decreased"}]}, {"molecule": "B1", "values": [{"measurement": "tumor growth inhibition", "setting": "[2]; 20 mg/kg b.i.d., bolus injection", "value": "no significant tumor growth inhibition"}, {"measurement": "average percentage tube branch formation", "setting": "[3]; 5 μg/ml, BSA 22.7±3.1", "value": "19.4±3.0"}, {"measurement": "average percentage tube branch formation", "setting": "[3]; 20 μg/ml endostatin", "value": "7.5±6.0"}]}, {"molecule": "B2", "values": [{"measurement": "reversal of anti-proliferative effect by soluble αvβ3 protein", "setting": "[1]; αvβ3 at 2.4 μg/ml (3-fold molar excess), Tumstatin 0.1 μg/ml", "value": 43.1, "unit": "%"}, {"measurement": "incorporation of BrdU", "setting": "[4]", "value": "decreased incorporation of BrdU"}]}, {"molecule": "B3", "values": [{"measurement": "anti-proliferative effect after pre-incubation with anti-Tum-4 antibody", "setting": "[5]", "value": "not altered"}]}, {"molecule": "B4", "values": [{"measurement": "tumor growth inhibition", "setting": "[2]; 1 mg/kg i.p. b.i.d., 20 days", "value": 74.1, "unit": "%"}, {"measurement": "tumor growth inhibition", "setting": "[2]; continuous delivery via Alzet mini-pump, 1 mg/kg over 24 hours", "value": 70.1, "unit": "%"}, {"measurement": "reversal of anti-proliferative effect by soluble αvβ3 protein", "setting": "[1]; αvβ3 protein at 1 μg/ml, 20% FCS", "value": 65.9, "unit": "%"}, {"measurement": "average percentage tube branch formation", "setting": "[3]; 5 μg/ml, BSA 22.7±3.1", "value": "2.1±2.0"}, {"measurement": "incorporation of BrdU", "setting": "[4]", "value": "decreased incorporation of BrdU"}]}, {"molecule": "B5", "values": [{"measurement": "anti-proliferative effect after pre-incubation with anti-Tum-4 antibody", "setting": "[5]", "value": "not affected"}, {"measurement": "recovery of anti-proliferative effect by soluble αvβ3 protein", "setting": "[1]; 2 g/ml αvβ3 protein (so in the source)", "value": 74.1, "unit": "%"}]}]}
